Here are results for three molecules from patent US20180311371A1 (Hoffmann-La Roche, published 2018).

Experiment [1] deals with T1, human TPBG (trophoblast glycoprotein), full length, cell surface expressed (human, UniProt Q13641 32-420).
T1 sequence: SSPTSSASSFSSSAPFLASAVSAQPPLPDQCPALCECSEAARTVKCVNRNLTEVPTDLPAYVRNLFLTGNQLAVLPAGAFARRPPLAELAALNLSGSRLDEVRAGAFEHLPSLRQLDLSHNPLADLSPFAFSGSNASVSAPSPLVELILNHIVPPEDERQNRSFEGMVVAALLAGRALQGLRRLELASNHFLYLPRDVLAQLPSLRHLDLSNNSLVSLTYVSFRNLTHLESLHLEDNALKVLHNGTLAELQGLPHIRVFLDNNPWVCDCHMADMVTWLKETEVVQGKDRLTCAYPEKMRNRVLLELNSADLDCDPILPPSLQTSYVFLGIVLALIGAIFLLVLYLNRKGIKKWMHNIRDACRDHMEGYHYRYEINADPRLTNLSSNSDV
The experiment can be described thus: cell-based or functional assay.

The target of experiment [2] is T1, human TPBG (trophoblast glycoprotein), …. The experiment can be described thus: cell-based or functional assay. This is another data set of the same source.
In experiment [3] the target is T2, huTPBG (recombinant human TPBG immobilised on the Biacore chip) (human, UniProt Q13641 32-355, limits assumed).
T2 construct: also called human TPBG antigen
T2 sequence: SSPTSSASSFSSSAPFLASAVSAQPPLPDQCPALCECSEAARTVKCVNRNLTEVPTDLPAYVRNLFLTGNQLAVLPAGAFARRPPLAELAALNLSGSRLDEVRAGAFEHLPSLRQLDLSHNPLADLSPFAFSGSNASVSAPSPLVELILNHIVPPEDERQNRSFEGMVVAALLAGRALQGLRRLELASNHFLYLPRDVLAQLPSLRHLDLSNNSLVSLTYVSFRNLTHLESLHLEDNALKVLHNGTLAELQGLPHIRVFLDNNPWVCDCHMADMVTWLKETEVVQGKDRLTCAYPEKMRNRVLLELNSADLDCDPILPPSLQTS
The experiment can be described thus: SPR Biacore T200; huTPBG amine-coupled, Fab-PE injected; pH 7.4. Background: SPR reads the build-up and loss of mass on a sensor chip optically.

The target of experiment [4] is T2, huTPBG (recombinant human TPBG …). The experiment is described as follows: SPR Biacore T200; huTPBG amine-coupled, Fab-PE injected; pH 5.5.
In experiment [5] the target is T1, human TPBG (trophoblast glycoprotein), ….
In experiment [6] the target is T3, minipig TPBG, full length, cell surface expressed on CHO-K1 cells (minipig).
T3 construct: also called pgTPBG; mpTPBG
T3 chain: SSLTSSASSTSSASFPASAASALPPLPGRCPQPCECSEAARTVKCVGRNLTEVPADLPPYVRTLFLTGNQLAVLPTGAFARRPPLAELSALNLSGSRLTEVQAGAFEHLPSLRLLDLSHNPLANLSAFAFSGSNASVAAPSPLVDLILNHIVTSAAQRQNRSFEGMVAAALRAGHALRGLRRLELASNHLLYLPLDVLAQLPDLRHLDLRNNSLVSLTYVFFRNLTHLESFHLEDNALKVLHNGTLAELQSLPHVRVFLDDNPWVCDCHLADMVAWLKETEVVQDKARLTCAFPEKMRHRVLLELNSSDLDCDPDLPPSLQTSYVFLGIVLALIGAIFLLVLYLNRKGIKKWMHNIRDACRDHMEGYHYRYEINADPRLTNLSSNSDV
The experiment is described as follows: flow cytometry on CHO-K1 stably expressing minipig TPBG; Fab-PE fusion. (A flow cytometer gives signals particle by particle.)

Experiment [7] has as its target T1, human TPBG (trophoblast glycoprotein), …. The experiment can be described thus: cell-based or functional assay. The source holds these as a separate data set.
For experiment [8] the target is unchanged. The experiment is described as follows: cell-based or functional assay. The source holds these as a separate data set.
Experiment [9] shares this target. The experiment is described as follows: flow cytometry on CHO-K1 stably expressing human TPBG; Fab-PE fusion.
For experiment [10], the target named is T3, minipig TPBG, full length, cell surface …. The experiment can be described thus: cell-based or functional assay.
Experiment [11] addresses T1, human TPBG (trophoblast glycoprotein), …. The experiment can be described thus: cell-based or functional assay. This is another data set of the same source.

Read-outs that look alike come from different tables or passages of the source.

B1: anti-TPBG 091 Fab-PE fusion protein (refolded from E. coli inclusion bodies) (Fab)
heavy: MEVHLLESGGGLVHPGGSLRLSCAASGFTFRSDAMHWVRQAPGKGLEWVSGVSGSGGSPYYADSVKGRFTISRDDSKTTLYLQMNSLRAEDTAVYYCATGGSIAGSYYYYPMDVWGQGTTVTVSSASTKGPSVFPLAPSSKSTSGGTAALGCLVKDYFPEPVTVSWNSGALTSGVHTFPAVLQSSGLYSLSSVVTVPSSSLGTQTYICNVNHKPSNTKVDKKVEPKSCDKTHKASGGRHRQPRGWEQLGGGGGSPTGAEFLGDGGDVSFSTRGTQNWTVERLLQAHAQLEERGYVFVGYHGTFLEAAQSIVFGGVAARSQDLAAIWAGFYIAGDPALAYGYAQDQEPDAAGRIRNGALLRVYVPASSLPGFYRTSLTLAAPEAAGEVERLIGHPLPLALDAITGPEEEGGRLETILGWPLAERTVVIPSAIPTDPRNVGGDLDPSSIPDKEQAISALPDYASQPGKPPREDLK
light: not shown
notes: also called Fab-PE comprising antibody 091
By Kd is commonly meant the equilibrium constant for the complex coming apart. For orientation: koff means the first-order rate constant of dissociation. The term kon denotes a measure of how fast the partners come together. What is called EC50 is the midpoint of the concentration-response curve. On to B1, for which, in experiment [1], the “EC50 cytotoxicity, Fab-PE fusion, H1975, replicate 1” value (from here on “EC50 cytotoxicity … replicate 1”) turned out to be 0.005 nM and the “EC50 cytotoxicity, Fab-PE fusion, H1975, replicate 2” value (from here on “EC50 cytotoxicity … replicate 2”) is 0.003 nM. For the same molecule, in experiment [2], the “X-fold higher potency than Fab-PE fusion protein of H8, H1975, 10 min” value was found to be 4 fold; the “X-fold higher potency than Fab-PE fusion protein of H8, H1975, 30 min” value was found to be 3.3 fold; the “X-fold higher potency than Fab-PE fusion protein of H8, H1975, 60 min” value worked out at 4.2 fold; the “X-fold higher potency than Fab-PE fusion protein of H8, H1975, continuous” value worked out at 3.7 fold. In experiment [3], the Kd came to 0.461 nM, the koff came out at 0.000129 s⁻¹ and the kon was 280000 M⁻¹ s⁻¹. In experiment [4], the Kd was determined as 8.89 nM, the koff came to 0.00201 s⁻¹ and the kon was 226000 M⁻¹ s⁻¹. This molecule also returned a half-maximal effective concentration (EC50) in experiment [5] of 0.89 nM. In [6], a half-maximal response (EC50) required 10.8 nM. In experiment [7], the “EC50 protein synthesis inhibition (luciferase), BxPC-3, replicate 1” value is 0.014 nM and the “EC50 protein synthesis inhibition (luciferase), BxPC-3, replicate 2” value amounted to 7 pM. Further, in experiment [8], the “EC50 proliferation, H1975, 10 min exposure” value was determined as 0.057 nM; the “EC50 proliferation, H1975, 30 min exposure” value was 0.062 nM; the “EC50 proliferation, H1975, 60 min exposure” value worked out at 0.043 nM; the “EC50 proliferation, H1975, continuous exposure” value was 0.003 nM. In addition, the midpoint of the response in [9], the EC50, lay at 8.5 nM. For the same molecule, in [10], the “EC50 cytotoxicity, Fab-PE fusion, stable CHO-K1 pgTPBG” value amounted to 0.15 nM and the “X-fold lower potency pgTPBG versus huTPBG” value was determined as 3.3 fold. The “EC50 cytotoxicity, Fab-PE fusion, stable CHO-K1 huTPBG” value in experiment [11] was found to be 0.05 nM.

B2: anti-TPBG 051 Fab-PE fusion protein (refolded from E. coli inclusion bodies) (Fab)
heavy: MEVQLLESGGGLLQPGGSLRLSCAASGFTFSIYWMTWVRQAPGKGLEWVSAISGSGGSTYYADSVKGRFTISRDNSKNTLYLQMNSLRAEDTAVYYCAKDYYSNVYWGQGTLVTVSSASTKGPSVFPLAPSSKSTSGGTAALGCLVKDYFPEPVTVSWNSGALTSGVHTFPAVLQSSGLYSLSSVVTVPSSSLGTQTYICNVNHKPSNTKVDKKVEPKSCDKTHKASGGRHRQPRGWEQLGGGGGSPTGAEFLGDGGDVSFSTRGTQNWTVERLLQAHAQLEERGYVFVGYHGTFLEAAQSIVFGGVAARSQDLAAIWAGFYIAGDPALAYGYAQDQEPDAAGRIRNGALLRVYVPASSLPGFYRTSLTLAAPEAAGEVERLIGHPLPLALDAITGPEEEGGRLETILGWPLAERTVVIPSAIPTDPRNVGGDLDPSSIPDKEQAISALPDYASQPGKPPREDLK
light: MDIQMTQSPSSVSASVGDRVTITCRASQGIYSWLAWYQQKPGKAPKLLIYAASSLQSGVPSRFSGSGSGTDFTLTISSLQPEDFATYYCQQSDSPPYTFGQGTKLEIKRTVAAPSVFIFPPSDEQLKSGTASVVCLLNNFYPREAKVQWKVDNALQSGNSQESVTEQDSKDSTYSLSSTLTLSKADYEKHKVYACEVTHQGLSSPVTKSFNRGEC
notes: also called Fab-PE comprising antibody 051
For the molecule B2, in experiment [1], the “EC50 cytotoxicity … replicate 1” value came to 0.016 nM and the “EC50 cytotoxicity … replicate 2” value stood at 0.014 nM. Besides, in experiment [2], the “X-fold higher potency than Fab-PE fusion protein of H8, H1975, 10 min” value was determined as 1.1 fold; the “X-fold higher potency than Fab-PE fusion protein of H8, H1975, 30 min” value turned out to be 1 fold; the “X-fold higher potency than Fab-PE fusion protein of H8, H1975, 60 min” value came to 1 fold; the “X-fold higher potency than Fab-PE fusion protein of H8, H1975, continuous” value is 1.1 fold. For the same molecule, in [3], the Kd is 0.121 nM, the koff worked out at 3.46e-05 s⁻¹ and the on-rate (kon) came out at 286000 M⁻¹ s⁻¹. For the same molecule, in [4], the Kd is 0.292 nM, the koff was 0.000113 s⁻¹ and the kon was found to be 386000 M⁻¹ s⁻¹. In experiment [5], the half-maximal effective concentration (EC50) came to 1.25 nM. This molecule yielded an EC50 in [6] of 16.9 nM. Besides, in [7], the “EC50 protein synthesis inhibition (luciferase), BxPC-3, replicate 1” value was found to be 0.027 nM and the “EC50 protein synthesis inhibition (luciferase), BxPC-3, replicate 2” value turned out to be 15 pM. Further, in experiment [8], the “EC50 proliferation, H1975, 10 min exposure” value was found to be 0.241 nM; the “EC50 proliferation, H1975, 30 min exposure” value is 0.204 nM; the “EC50 proliferation, H1975, 60 min exposure” value was found to be 0.18 nM; the “EC50 proliferation, H1975, continuous exposure” value came to 0.014 nM. The molecule further came in with an EC50 in experiment [9] of 12.4 nM. In addition, in [10], the “EC50 cytotoxicity, Fab-PE fusion, stable CHO-K1 pgTPBG” value was found to be 1.37 nM and the “X-fold lower potency pgTPBG versus huTPBG” value is 51.7 fold. For the same molecule, the “EC50 cytotoxicity, Fab-PE fusion, stable CHO-K1 huTPBG” value in [11] came out at 0.03 nM.

B3: anti-TPBG 097 Fab-PE fusion protein (refolded from E. coli inclusion bodies) (Fab)
heavy: MEVQLLESGGGLAQPGGSLRLSCAASGFTFNNDAMTWVRQAPGKGLEWVSAISGSGGSTYYADSVKGRFTISRDNSKNTLYLQMNSLRAEDTAVYYCAKGGSWGDWYYYFYPMDVWGQGTTVTVSSASTKGPSVFPLAPSSKSTSGGTAALGCLVKDYFPEPVTVSWNSGALTSGVHTFPAVLQSSGLYSLSSVVTVPSSSLGTQTYICNVNHKPSNTKVDKKVEPKSCDKTHKASGGRHRQPRGWEQLGGGGGSPTGAEFLGDGGDVSFSTRGTQNWTVERLLQAHAQLEERGYVFVGYHGTFLEAAQSIVFGGVAARSQDLAAIWAGFYIAGDPALAYGYAQDQEPDAAGRIRNGALLRVYVPASSLPGFYRTSLTLAAPEAAGEVERLIGHPLPLALDAITGPEEEGGRLETILGWPLAERTVVIPSAIPTDPRNVGGDLDPSSIPDKEQAISALPDYASQPGKPPREDLK
light: not shown
notes: also called Fab-PE comprising antibody 097
Regarding B3, in experiment [1], the “EC50 cytotoxicity … replicate 1” value came out at 0.013 nM and the “EC50 cytotoxicity … replicate 2” value was 0.013 nM. For the same molecule, in experiment [2], the “X-fold higher potency than Fab-PE fusion protein of H8, H1975, 10 min” value came out at 0.9 fold; the “X-fold higher potency than Fab-PE fusion protein of H8, H1975, 30 min” value is 0.9 fold; the “X-fold higher potency than Fab-PE fusion protein of H8, H1975, 60 min” value worked out at 1.1 fold; the “X-fold higher potency than Fab-PE fusion protein of H8, H1975, continuous” value was 1.1 fold. In addition, in experiment [3], the Kd came out at 1.97 nM, the koff is 0.00121 s⁻¹ and the association rate constant (kon) was 614000 M⁻¹ s⁻¹. Also, in experiment [4], the Kd was determined as 7.49 nM, the off-rate (koff) stood at 0.00605 s⁻¹ and the kon is 808000 M⁻¹ s⁻¹. The molecule further showed an EC50 in [5] of 0.64 nM. The molecule further showed an EC50 in [6] of 15.4 nM. Moreover, in experiment [7], the “EC50 protein synthesis inhibition (luciferase), BxPC-3, replicate 1” value is 0.022 nM and the “EC50 protein synthesis inhibition (luciferase), BxPC-3, replicate 2” value was 8 pM. In addition, in experiment [8], the “EC50 proliferation, H1975, 10 min exposure” value was found to be 0.211 nM; the “EC50 proliferation, H1975, 30 min exposure” value is 0.189 nM; the “EC50 proliferation, H1975, 60 min exposure” value came to 0.203 nM; the “EC50 proliferation, H1975, continuous exposure” value was 0.013 nM. The molecule further showed an EC50 in experiment [9] of 5.6 nM. In [10], the “EC50 cytotoxicity, Fab-PE fusion, stable CHO-K1 pgTPBG” value turned out to be 0.14 nM and the “X-fold lower potency pgTPBG versus huTPBG” value was 3.4 fold. In addition, in experiment [11], the “EC50 cytotoxicity, Fab-PE fusion, stable CHO-K1 huTPBG” value is 0.04 nM.
